Laboratory results taken from the supplement of paper PMC10567573.

B1: SMAD6 (parent)
chain: SGLVRRLWRSRVVPDREEGGSGGG
B2: SMG5 (parent)
chain: QEKLQVLMAEGLLPAVKVFLDWLR

Variants of: B1
Experiment: protein stability index of a GFP-peptide fusion (GPS, HEK-293T) (PSI 1-6); higher = more stable
Conditions: c terminus: a fixed tail appended
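Further: lentivirally expressed fusions sorted by FACS into six bins by GFP to DsRed ratio, PSI derived from sequencing read proportions per bin multiplied by bin number.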

Protein stability index, by site and new letter:
E18: C 2.94; P 3.46; I 4.17; A 2.9; Y 2.44; N 2.42; D 3.82; F 2.68; V 3.85
S21: D 4.54; Y 3.09; W 2.9; V 3.37; E 3.53
V12: F 3.69; P 3.67; Y 3.1; D 4.76; I 4.07; M 4.06; N 4.22
E17: A 3.47; C 4.26; Y 1.19; K 4.14; G 3.86; V 3.71; R 2.93; D 4.12; T 3.31; S 4.07
G24: Q 3.59; H 2.83; K 3.78; C 4.91; E 4; F 2.44; T 4.01
G20: L 2.74; V 2.44; R 4.04; W 1.99; C 3.04; N 3.11; A 4; I 3.06; Q 3.96; F 2.82
D15: H 3.55; E 4.31; T 4.33; K 3.35; P 3.62; M 3.01; N 3.96; I 2.75
R16: L 3.34; W 3.25; S 4.7; Q 3.67; E 4.32; M 3.4; I 3.76; N 4.37
P14: K 4.3; D 2.83; L 3.18; Y 3.02; N 3.77
G22: A 3.84; R 4.48; E 4.04; F 2.98; C 3.04; I 3.87
G23: P 3.89; D 5.01; F 3.13; H 3.7; N 3.01; E 3.9; S 4.47; M 3.25; V 3.78
V13: D 4.88; L 3.99; W 3.37; K 4.13; F 3.32
G19: W 2.79; P 4.07; M 3.35; A 4.28; K 4.06

Variants of: B2
Experiment: as above
Conditions: c terminus: a fixed tail appended

Protein stability index: each site, then its substitutions
Q1: W 1.95; A 2.23; Y 2.81; T 1.96; R 1.57; L 3.5; I 2.95; N 1.62; F 2.89; V 2.18; M 2.37; H 1.45; G 2.22; C 1.53; S 2.88; K 4.12; P 2.09; E 3.01; D 2.79
E2: F 2.2; Y 2.15; C 2.47; A 2.31; S 3.11; K 2.38; M 2.83; L 1.44; R 2.37; G 1.6; V 2.56; W 1.56; T 2.68; I 2.23; Q 2.92; D 2.26; P 2.96; H 3.82; N 2.86
Q5: F 1.46; I 2.86; H 1.58; T 1.47; E 4.03; K 2.45; M 2.19; D 3.13; P 2.22; A 2; N 1.67; C 2.11; S 2.8; W 1.45; G 1.88; V 2.31; L 2.5; Y 1.8
K3: W 1.48; T 1.48; E 2.25; G 1.91; F 1.53; Y 2.15; M 1.5; V 2.02; C 2.03; Q 2.66; I 1.45; R 3.73; A 4.03; D 2.02; S 1.79; H 1.96; L 1.78; N 1.91
G11: Y 2.29; P 2.2; Q 1.69; M 2.38; I 1.81; T 2.44; N 1.52; H 1.99; V 2.56; D 1.64; E 1.6; R 2.04; S 1.99; A 2.28; W 2.23; C 1.99; L 1.6; F 1.84; K 1.6
P14: L 1.67; R 1.69; K 3.27; I 1.19; D 2.29; A 2.25; Q 1.83; M 1.75; T 2.54; S 2.32; F 1.97; E 1.96; V 1.42; N 2.38; C 1.7; G 1.17
L4: R 2.69; D 3.26; G 3.1; S 2.75; V 2.58; T 3.18; Y 4.02; I 1.91; H 2.2; C 3.13; E 1.12; F 2.71; W 2.18; M 2.32
L7: D 1.94; Y 1.86; V 2.07; W 3.24; E 2; K 2.49; R 4.07; M 1.64; P 2.26; N 2.47; C 1.54; A 2.4; S 1.67; F 1.8
A9: H 2.41; W 1.78; Q 2.82; D 1.76; T 1.42; C 2.63; K 2.21; M 1.81; Y 1.98; N 3.04; I 1.82; S 2.19; E 2.95; F 1.78; R 4.4; P 2.41; V 1.58; L 3.66
V6: P 2; Y 3.07; K 2.16; E 2.18; W 2.51; A 1.82; I 1.5; D 1.96; Q 2.02; H 1.55; C 2.14; R 1.99; G 2.42; M 1.48; N 3.16
L12: Y 2.32; S 2.42; E 2.32; R 3.06; A 1.61; T 2.21; I 2.14; Q 2.1; F 1.91; M 1.22; K 2.34; G 1.79; P 3.4; W 1.8; D 2.16; V 1.39; H 1.25; N 1.82
E10: I 1.4; W 1.65; R 1.95; T 2.89; D 1.44; H 3.21; F 1.86; A 2.7; S 2.61; V 1.76; M 1.85; Y 1.56; L 1.93; C 2.58; Q 2.35; P 2.12
L13: F 1.38; H 2.6; D 1.98; W 2.62; G 2.17; P 2.6; E 1.09; K 1.62; T 1.29; R 1.37; C 2.25; N 1.99; A 2.36; Q 1.71; V 2.04; M 2.27; Y 3.17; S 2.78
M8: Q 2.85; E 2.44; D 1.8; S 1.31; Y 3.06; V 3.7; H 4.3; F 1.36; K 2.8; L 2.48; T 3.02; G 2.85; R 3.01; W 2.3; C 2.26; A 2.54; I 1.9; N 2.57
